Test results as given in patent US20050142568A1 (published 2005).

T1: GST-CRN-3 (C. elegans, UniProt G5EBX6 1-876)
T1 construct: also called CRN-3 GST-fusion protein; not shown: glutathione S-transferase tag encoded by vector pGEX4T-2
T1 sequence: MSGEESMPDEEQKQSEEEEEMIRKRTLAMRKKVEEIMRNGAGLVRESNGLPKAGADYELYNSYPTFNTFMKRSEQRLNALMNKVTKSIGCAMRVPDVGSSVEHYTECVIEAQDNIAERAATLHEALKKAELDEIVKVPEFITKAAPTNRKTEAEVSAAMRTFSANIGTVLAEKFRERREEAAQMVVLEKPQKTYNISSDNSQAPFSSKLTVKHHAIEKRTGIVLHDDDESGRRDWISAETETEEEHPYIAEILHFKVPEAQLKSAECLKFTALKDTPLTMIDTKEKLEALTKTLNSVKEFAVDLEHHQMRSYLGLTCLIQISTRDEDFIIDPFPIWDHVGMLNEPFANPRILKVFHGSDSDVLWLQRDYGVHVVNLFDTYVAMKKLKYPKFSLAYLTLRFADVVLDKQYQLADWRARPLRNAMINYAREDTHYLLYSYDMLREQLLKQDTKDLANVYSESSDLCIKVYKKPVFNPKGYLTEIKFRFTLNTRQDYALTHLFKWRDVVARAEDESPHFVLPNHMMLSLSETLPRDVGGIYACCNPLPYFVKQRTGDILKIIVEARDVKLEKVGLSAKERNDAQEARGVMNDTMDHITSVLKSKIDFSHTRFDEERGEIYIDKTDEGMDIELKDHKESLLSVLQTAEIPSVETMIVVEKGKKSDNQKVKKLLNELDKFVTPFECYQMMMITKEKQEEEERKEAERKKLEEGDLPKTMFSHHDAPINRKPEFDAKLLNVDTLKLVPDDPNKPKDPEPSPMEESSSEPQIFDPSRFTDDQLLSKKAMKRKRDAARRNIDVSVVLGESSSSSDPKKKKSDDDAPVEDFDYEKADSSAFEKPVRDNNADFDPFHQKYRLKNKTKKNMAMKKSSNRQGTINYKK

T2: GST-NUC-1 (C. elegans, UniProt Q17778 22-375)
T2 construct: also called NUC-1 GST-fusion protein; not shown: glutathione S-transferase tag encoded by vector pGEX4T-2
T2 sequence (looked up): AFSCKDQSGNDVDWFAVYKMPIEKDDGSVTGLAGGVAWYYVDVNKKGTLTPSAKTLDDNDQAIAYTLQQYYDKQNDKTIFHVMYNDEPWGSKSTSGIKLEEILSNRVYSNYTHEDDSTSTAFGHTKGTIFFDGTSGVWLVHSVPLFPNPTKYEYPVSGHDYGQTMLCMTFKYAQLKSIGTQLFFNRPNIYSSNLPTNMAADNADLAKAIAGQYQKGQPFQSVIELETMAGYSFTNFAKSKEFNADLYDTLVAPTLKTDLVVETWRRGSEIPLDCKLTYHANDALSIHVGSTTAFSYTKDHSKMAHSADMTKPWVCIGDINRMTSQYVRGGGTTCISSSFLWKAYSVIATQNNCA

T3: ^35S-Methionine labeled CRN-6 (C. elegans, UniProt P34508-2 18-373, limits assumed, 35S-methionine labelled)
T3 sequence (looked up): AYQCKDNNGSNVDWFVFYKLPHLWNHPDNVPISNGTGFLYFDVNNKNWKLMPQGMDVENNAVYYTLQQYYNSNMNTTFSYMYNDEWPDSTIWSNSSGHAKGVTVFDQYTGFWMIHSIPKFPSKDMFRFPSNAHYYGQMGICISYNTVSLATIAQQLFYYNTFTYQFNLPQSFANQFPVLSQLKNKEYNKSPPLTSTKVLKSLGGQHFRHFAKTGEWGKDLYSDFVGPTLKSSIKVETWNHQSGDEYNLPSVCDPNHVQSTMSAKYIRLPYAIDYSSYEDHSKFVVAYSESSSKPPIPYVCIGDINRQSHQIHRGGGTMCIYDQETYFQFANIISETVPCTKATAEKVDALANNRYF

T4: ^35S-Methionine labeled CRN-3 (C. elegans, UniProt G5EBX6 1-876)
T4 sequence: T1 sequence

T5: ^35S-Methionine labeled NUC-1 (C. elegans, UniProt Q17778 22-375, 35S-methionine labelled)
T5 sequence (looked up): T2 sequence (looked up)

B1: full-length ^35S-methionine labeled CPS-6 (enzyme, C. elegans, UniProt Q95NM6 1-308, looked up)
chain: MIGKVAGTAAIAGISFLAGKYSNDDLPIFRNVQSATNVPMNQIQVSEPMTVKPASLNADAMGPSRSAEIMKHGYPGFTNVRTYEDFVLSYDYKTRTAHWVCEHLTPERLKHAEGVDRKLCEFKPDITFPQKFLSQNTDYKCSGFDRGHLAAAGNHRKSQLAVDQTFYLSNMSPQVGRGFNRDKWNDLEMHCRRVAKKMINSYIITGPLYLPKLEGDGKKYIKYQVIGDNNVAVPTHFFKVALFEVTPGKFELESYILPNAVIEDTVEISKFHVPLDAVERSAGLEIFARLDPKSIVKENGAKKGGLLW
modifications: 35S-methionine labelled
notes: also called ^35S-CPS-6
B2: GST-CPS-6 (other, C. elegans, UniProt Q95NM6 1-308, looked up)
chain: B1 chain
notes: GST at the N-terminus as in pGEX vectors; also called CPS-6 GST-fusion protein; not shown: glutathione S-transferase tag encoded by vector pGEX4T-2
B3: GST-CRN-4 (other, C. elegans, UniProt Q10905 1-298, looked up)
chain: MAYQHCPFDTLLILDFETTSDAANQDYPCEVIQFAIVAYDVPNDKIREDISFNKYVKPVLNRTLTKNCVDFTGIPQRSIDTADTFDVVYEQFQQWLITLGLEEGKFAFVCDSRQDLWRIAQYQMKLSNIQMPAFFRQYINLYKIFTNEMDRMGPKELSATTNIGKMNEYYDLPTIGRAHDAMDDCLNIATILQRMINMGAKVTVNELLTCCASWRRQPLVYNKEWRSSFMDAGKIFERVLPLVVTTIRAGDFRLEMYGVCRYCRKGMDVCGTSHQQTPHDLYKNEEDPIHFAKIAGYY
notes: also called CRN-4 GST-fusion protein; not shown: glutathione S-transferase tag encoded by vector pGEX4T-2

Columns and labels:
Assay in all cases: GST pull-down, 35S-Met protein vs GST fusion; - means no detectable binding (footnote a)
GST-CRN-3 = target: T1, GST-CRN-3
Experimental: (§1) GST fusion protein pull-down assays were performed as described in J. Parrish, H. Metters, L. Chen, D. Xue, Proc. Natl. Acad. Sci. U.S.A. 97, 11916 (2000). Purified GST or GST-fusion proteins (5 μg each) immobilized on glutathione sepharose beads were incubated with ³⁵S-Methionine labeled proteins at 4° C. for 2 hours. The beads were washed extensively and the bound proteins were resolved on a 12% SDS-PAGE and visualized by autoradiography. [0103] cDNAs corresponding to the ORFs were cloned into the pPD129.36 vector via its Nhe I and Xho I sites or the Xho I site alone. Full-length cDNAs were subcloned into the pGEX4T-2 vector for generating GST fusion proteins and for further protein purification and into the pcDNA3.1 vector for in vitro transcription/translation experiments.
(§2) ^aInteractions were evaluated relative to background binding of ³⁵S-Methionine labeled Luciferase to GST-fusion proteins and ³⁵S-Methionine labeled proteins to GST. “−” indicates no detectable binding, “+” indicates an interaction consistently observed above background levels, and “++” indicates a strong interaction. ^bBecause ³⁵S-Methionine labeled CRN-1 binds GST tightly, it was not possible to evaluate interactions between ³⁵S-CRN-1 and various GST-fusion proteins. ND, not determined.

GST-CPS-6 = target: B2
Experimental: as §1, §2

GST-NUC-1 = target: T2, GST-NUC-1
Experimental: as §1, §2

GST-CRN-6 = target: T6, GST-CRN-6 (C. elegans, UniProt P08515 1-218 = GST; P34508 1-373)
T6 construct: Two crn-6 cDNAs (700 bp and 1.1 kb) were isolated; the longer one made the GST fusion; also called CRN-6 GST-fusion protein
Experimental: as §1, §2

[1] = target: T3, ^35S-Methionine labeled CRN-6
Experimental: as §1, §2

[2] = target: T4, ^35S-Methionine labeled CRN-3
Experimental: as §1, §2

[3] = target: T5, ^35S-Methionine labeled NUC-1
Experimental: as §1, §2

Measured: binding result

B1
no binding: GST-CRN-3 | GST-CPS-6 | GST-NUC-1 | GST-CRN-6

B2
no binding: [1] | [2] | [3]

B3
no binding: [1] | [2]
